The series is described as follows: soluble on expression in E. coli; label from the status in PepcDB or PDB records.
Regarding “MAHHHHHHMGKLCWLQISIGGKPAKEKILLELFDDITPKTCANFRALCTGNEGKVTDETQIPMTYKGSTFHRIIAGFMIQGGDFTKHNGTGGVSIYGERFDDENFDVPCDKAGLLAMANAGPNTNGSQFFITVNPAQHLTGRHVVFGKVVRGMNTVRALEHTETGANDKPVKPCVIVDCGVTDTLPEPEPQVGGDTFPDYPEDCTPSLTDAELLDVGEEIRQIGNKLFKASDFENAIQKYEKAARFVKTINKTTANDVAVNEKLIACYNNTAACAIKLGQWSEARNAASRVLELDNSNAKALFRRGFASLSAGDSESAVADFTKAQKLDPDNTEIVTVLQQAKEAEKVRTAKLAAGLKKMFS”, the “soluble on expression in E. coli” value is given as “not soluble”.
To “MAHHHHHHMGTLEAQTQGPGSMSSSIEIFPDSDILVAAAGKRLVGAIGAAVAARGQALIVLTGGGNGIALLRYLSAQAQQIEWSKVHLFWGDERYVPEDDDERNLKQARRALLNHVDIPSNQVHPMAASDGDFGGDLDAAALAYEQVLAASAAPGDPAPNFDVHLLGMGPEGHINSLFPHSPAVLESTRMVVAVDDSPKPPPRRITLTLPAIQRSREVWLLVSGPGKADAVAAAIGGADPVSVPAAGAVGRQNTLWLLDRDAAAKLPS” belongs “soluble”.
Consider “MAHHHHHHMHLIYLKILFFSLLLDTFISSHTNIPRINNVTPKNVAINISPVVPIPDVITLDYIKENLEQIRLIKDIIIKGKLKKLKVLKQKCKKNKKDKEIKNEIENLEREIMDTRKLCNNYIKNEIKEIKSLKDQIVKDKIEKDRWKKDLLIDYELKRLMYKPDIERLKQLNEEYKKEELRVAKLKDNMFKIYQFILYLIPNTIYYTIEFINNIPEVELSLPKFLKKKKKKKVNHFSHYGVPYMK”, for which the “soluble on expression in E. coli” value was “soluble”.
For “MAHHHHHHMHNVYNIFRQGQKRTYMTTALDRKIREVPYLSRYVILEKLKKKPRYMSECVGTPRRAYDYNTFDKIRYKPTFNPYVHLNKDKKYRLDNWKSRDHENFDPLKCYVRGSRKSYDIPYAILPTKDELGMFHPPILSGRYKADIEKQYYMHDLPWVWHKNFYTGTSHFCDNMVIGKKKWYRKEQQNEKMKESMKKINNLVLEYREECKNKKRYNFLEKVVNTLGDEIAHKYIRKIKNIYL” the value was “not soluble”.
Consider “MAHHHHHHMHPPSSGQGLFPRYGGGWMHQFGHVYALQQELLDPNANNWFRAVELWHTARQEGVAMNVSHFTSILRQCVQPGAWAQSLQVLKQMKRENVRPDVVGVGCALAACVEGKHYDEVENIFATFHKTMLLDSVCHLALIRARQESGNAKGAIAAGKQQQADQVPFLPYTYTHLLEACNAEDDAAYAMELVRNMHSEQWVPSQCAMLAIEDLGRRHERLAAFSRPLLSASDKADSALPSFDASRRLLPPEW”, for which the “soluble on expression in E. coli” value is reported as “not soluble”.
As to “MAHHHHHHMILKEFCAEGYERIPEAIAAGAQRVELCARLDVGGVTPSADTIQNTVEYCHSRNAMVMVIIRCREGNFYYSDEEFQVMLKSVILARRLGADGVVFGAIDTLGNVDPRISILLSAAKGMSLTFHMAFDEIPTEKQFQAIDALTAYGFHRILTHGGSASTNIEENLDWLKELVLYAKNRISIMPGGGVTNLNAEKIARDLGVTEVHGTRVVRFV”, the “soluble on expression in E. coli” value is recorded as “not soluble”.
For “MAHHHHHHMKIRTVLRKRIRLHGTNCPGFTCHHNRFSRLLKTWVVVLPPKQLAVYKNGVQLLLQLVTEHLTGDGDVLLQLRYQHMIAKEMLSGRHNTASFRVTYGFLTFDGVNPKVCAMNLLCGNPLIVKHSACLQCTHPSFVRVLNFCVTLKKRRTIVSKPQGRPTKKQLKVAPQHR” the value was “not soluble”; for “MAHHHHHHMKNNEEWEKEKIYDRQLRLWGVKAQNRMMKSNVLILGLSGINIEICKNLILNGINITIIDDNIVDEEMVENIFFLNESDIQNYACVAIFKELKSINKMINMKAYIGRMDTSNDSIIIESELVQNADGEISNTKMGKTFSVEKYISNYTSVCVSCEDYPLYKLVKMNEFCHEKNIGFFAAMCNGKFAFLFSDFGNHVIEESYYKAKEGQRKGETGANKAGELQKEGETGANNGGIPIQYCTLSHFLKVPFENFDKKTNKIIFPMFALILFELNKQLNKSDKSIDEQEFSTFCDQFSLAKCKESLGEITKTYRVAFSPSCSIMGGVTSQEIRKFVSKQHESIPNFCVFDMNQSVVCTSMIS”, “not soluble”; for “MAHHHHHHMKWKWYNTKNICTLTNVFLSKHPYKPKTREIIHPHMTPPEYLAPSDCFQAKTGELQQYIPNNYYRVKWIESLRSGEYLGEDYPWNLLPNWKYWRKRKYNVKYEEIPWFISKVKGVSYYKRLNVWMVQWVENGVHRIRRFRCAFGLLQAKLAAEQFRKKLEEAGRVDNRKTERQIRMDYIQKKDERLLRKKKYSKISKGQF”, “not soluble”.
To “MAHHHHHHMKYRYDEKIHKGLYSEDNSTSMNNRYNNNESTYKMPKEILNRHEKIDLNSLPIDEEIINNLKIILNIEKLYMYQYIIYNEILKNSKHLLIYNKTGTGKTLSYLLPLIQKLINDKFDCNKKVLIITQNIYLCKQLYIYILSIYPTLNVCILSDEKESYNMNNNINNDIIVNIKRNNINPNDKENNDMCDEKYGIHFYLCTPNKLEYFIKNYKNKSRNDKNVMNNILNNINTIVIDEFDYIVEYRKNILNFFFKKDLFNEIHNNNNIRDKNRFNHDIFNKSNYNIYLFTANINEVIKKKIYEHLNGFVFFDFINGIKEHIQKQVAEQHNFNIDVLKNSENVVQLLNKENKNESLCNLNITHFVCKINSASKYKYVCYFLEEFFFHKQKISQKVYNDMVYDEYDKLNYRNMIPMEENKFVNNSEKEGNMKRSNADKINKCIIFANTKEEVEKLYEISLLKPHAVMMHSELLTIQKNENINLFKVGKKNVLITTDIISRGLDIDNVIFILNYSPPTSPNDYIHRSGRTGRGKEKGICLTMYHKYEYRNVDKIMKYTKNKFEVILCPKVEDVYKFSVDKLVENVMKIAPEKYEFFNEKSKELLKKHNTKIIAQILSILLKFDKKSFDVSLLSGKKNYVAVLIKDPFFEVIKNRDDIINIIKVITGNKIITTIIGDVAKCDEGFIVDISSSHVNKIISLFNSSNFEYKSKGLEINTLIELPPIIKEKKNIIRRKKKAPWIT” belongs “not soluble”.
For “MAHHHHHHMLDFLDTINKYTLRSGSVTHIGGKISKKCAAQLVGSLVLQGRLNHYCAALAAQFMVSSEVLVVASRDAVQGISCEGCTLERQNLSSVPDTGEIFGVATTGNNVVVGYSAGVAMFSCKLELEKIYTLSEYTNSILGIAVTPDGSCLATGGANAIVTVWSRDMNPVHYLAGHTDWVRFVKFTIMDGRGLELFSTGDDGLVLHWDPLVGTLLSRIDFFHGQDIHAFEVSWRTGLIGIARDTPTICLYKPQISGIASNHAVGAVRLEQIGRIDDAHHSVLTALRFSNDSQWIVSAGEDETLSVSSVCQLKRVFVCETFIVRRHCMTFMNTFTSVCVLASPPESSAIIVVACATDGTVVQWVVNPETFKCTYTKKLQLL” the value was “not soluble”; for “MAHHHHHHMLEDPNFSDFTGLHKSVTALTAANSDLARYGNELHKMILRYQLEVLSGTCNYVEVLSLAAYNGNLTAAEYVNNIEPVILGDDSVSVDIDTRTNTLSFRDSSKAKMLSYFNKIVANVDTVPASSLATTSGRYSDFTHVAASSSKREVMPLAADLDAARARSTSIYALQKACMNSKAERIEEAKKSEDKKRERAVAERREQEEAKKEETQKAYIRKLYAEYNERQRQERGKEVLRKLRIKYPGFKVDESIVYRSAAGFEDELTRLLAAFKRRGVDNDRKEILQANLYERALRALEIPKRKDYEAQNAERTRAERAAARENYLAEHRREYDRRQNEKAVLSKFLHDADEFERTWRKRANIDKPSKRDEQQRLLEEEMRRLGGE”, “not soluble”; for “MAHHHHHHMLKELNLNTTFLRQDYRTPLKQLSVDPIFCRRRGGRAILHFEMNQVQGTVAVTLTGCVAQACVPHACGAGWGNMKVEQLRSFFLSFVVVADAAQPSYFLWGEVSVHEMNGTAGNHLAIDGQSLRTCTTASVIPPLSEIPPEVFIVKAKKFRCQMHEKGFGDSTTCP”, “not soluble”.
Take “MAHHHHHHMLKHKYNDSCVQELFYKNNIKLIAIDIDGTLADDTGKISDENLKAIEVCKKGGIEIILASGRLHSYAMKMFTNEQIEKYKIEKLDGVYSHGAYIHMKGYDYVYRKFSYKDLELILFSLGSYNILRNAVFLTVDSAYVINDDIKLIEEYIYTPESEGIISDIEYVKIIDTNYKPILINKIKDIFNIGDIVSIEIYDKLYPNQDIYSDLFKVLFYELQPHYKIYIPSSNNKIVLSPINTAKVHTTQLYAQFYRINLNNILSIGNDDNDIELLSSTGFSVAVKNSTPRALQVARCVSTKTNNENAVANIIYRVLSGRRS”: the “soluble on expression in E. coli” value is on record as “not soluble”.
For “MAHHHHHHMLKLQLDATAIEDELKLSANSKSANTVSSKTPRPDKFAAYHTLRLLFVPIWKRYRFHKQMVWATAIVAKHVLLKVHWRRQRRSERATDTFLHVLRIPRTKLRCAAHLLEGQVVRIQRAFRRHRARVQAVVELNYRKVRRDVEEAYWEAVVTQHEAELAVQQRPFSPVPKAVREVFGARAEARARFGSIQRRTSLLSSAGNSSYDTAVPSNELDVYNFHMIGRLPGSLLRFEMTSAVFAQLRRSAARAHLMDDFSETRARRAGMGGFMEHGDIAPTNTAFVRSRGKCRAQLPCFLPESVYAAILNNTCYLTSLMRDDRKLRAHLRQREHHLESY” the value was “not soluble”; for “MAHHHHHHMLLAMCRYDCVGGCRERVCGGGGGGRGKGGEKKYRTEMGRASKDKRDIYYRKAKEEGYRARSAYKLLQLHEEFNILNRDEIQTGVVVLCAAPGSWSQLLARHLREEVGGRTEKQSLGAPRIVAVDLQEMMPIEGVQLLQGDITSEATAREIIRLLNIKEDTASVNDAYVDSEEDKSAIQTDKGGRSTARRPSLAPGGRNSYSDHTNSCEKKADLVVCDGAPDVTGMHELDEYLQHHLLLAALNITTFVLRCGGTFVTKIFRGPNTPFLVAKSEVFFRHVIIAKPRSSRNASMEAFMVCQDYQPPAGYRPSFDRPLTTTTRCFTPVAPLPPAFMHLQSEGRQITQKEKKGVEDQACMMESVIVPFLACGDLSGYDADMCYDRDSDVPVLPPVHPPRQAPYMTTACKNDEDSVVATNGAEDIMKRRRVE”, “not soluble”; for “MAHHHHHHMLLGSFADFSVNGASTVDMPLAPSLEYVARMLRELPSVLHAEQWPTQFVCDSNAPLSGSGTELRNAEAITSSSSSVLERTLLGISPLSGTDAAVSQFLERLGGATTSLALRSLFDLCHADVWNLLGVAATSPISRLAALEKLAAAANGSASAPGPCRPVLDAETLEFKDILVWAWNRQYGCVGLRRLFFEMQVLFYRYAMNAQATSKQSRAGNGATLRDVCELWAVWRLSLQKWSAAFLAKLGTHEQTADVLDASTLRADACDLMRQHAIAVSGLAEVQRMALRVITKLQTVDAKGWFAVPAFDLVNVDFTSVRYWISSPVFARKSKREAYRSLCRTLERMVDSCVQKYGPTHAFSDVITTVRQQLVDVARAEGLL”, “not soluble”.
To “MAHHHHHHMLRFTHRALARKAAVKAGSRTSAAAGATAALHAAPAAPQNAVSIPPIPGVRSVRAFRTQKMEALQPQPAAATAGRKAFAAKGSKHVKAALKSRPSKKVKLPKKAAAPSRAQQAQQVKHAKQLKAPKSAAKEISKKAKTAKARK” belongs “soluble”.

For the origin of these results see the DeepSol protein solubility set.
